Here are results for 167 variants from the RNAGym collection of RNA variant scans (doi:10.7554/elife.80360).

The chains are these.
B1: HDV Ribozyme (parent)
chain: GGCCGGCAUGGUCCCAGCCUCCUCGCUGGCGCCGGCUGGGCAACAUUCCGAGGGGACCGUCCCCUCGGUAAUGGCGAAUGGGACCCA

This series covers variants of B1. In words: self-cleavage, relative activity (ratio to wild type); higher = more cleavage; co-transcriptional.
As for G39A A71G, the self-cleavage was determined as 0.332. For G39A A71C, the self-cleavage worked out at 0.332. For the variant G38C G76U, the self-cleavage was 0.47. For G38C G76A, the self-cleavage stood at 0.205. On to G38C G76C, for which the self-cleavage amounted to 0.122.

Take G38U C57A: the self-cleavage amounted to 0.323.

Turning to G38U C57U, the self-cleavage came to 0.126. Consider G38U C57G, for which the self-cleavage amounted to 0.38. For G38A C85G, the self-cleavage was 0.157. As for G38U C64A, the figure is 0.257; as for G38U C64U, 0.25; as for G38U C64G, 0.177. As for G39C A45C, the figure is 0.198; as for G39C A45U, 0.0475; as for G39A G50C, 0.504. As to G39C A51C, the self-cleavage turned out to be 0.291. G39C A51G: the self-cleavage came to 0.38.

Regarding G38U A43U, the self-cleavage came to 0.0963.

Consider G39A C49U, for which the self-cleavage was determined as 0.519. In the case of G38A U69G, the self-cleavage was determined as 0.166. As for G38A U69A, the figure is 0.148. Next, G38A C48U: 0.115; G38A C48A: 0.121; G38U C86U: 0.241. In the case of G38C C66U, the self-cleavage is 0.153.

U37G G68A: the self-cleavage is 0.246.

As to U37G G68C, the self-cleavage was 0.246. Next, U37G G68U: 0.128; G38U A42G: 0; G38U A42U: 0.261.

For the variant G39A G73C, the self-cleavage turned out to be 0.205. Next, G38C U65A: 0.341; G38C G50C: 0.35; G38C C64G: 0.415. Next, G39A A70U: 0.496; G38U G40U: 0.19.

Regarding G38U G40A, the self-cleavage stood at 0.222. Consider G38A C86A, for which the self-cleavage was determined as 0.247. Next, G38A C86U: 0.138; G38C U60G: 0.113; G38A C61U: 0.0573. For the variant G38U C62U, the self-cleavage came to 0.337. As to U37G G81A, the self-cleavage is 0. As for G39A, the figure is 0.51; as for G39C, 0.245; as for G38A A45C, 0.0804. With G39A U46A, the self-cleavage came to 0.0773. In the case of G38C C85G, the self-cleavage came to 0.237. For G38C C85A, the self-cleavage was determined as 0.0997.

Consider G39A G74A, for which the self-cleavage was 0.172. Regarding G39A G74C, the self-cleavage is 0.147. On to G38C G74U, for which the self-cleavage was 0.0739. As to G38A G52U, the self-cleavage was 0.245. G38C A70U: the self-cleavage was 0.185. As to G38C A70C, the self-cleavage is 0.291. Consider G39A A45C, for which the self-cleavage amounted to 0.188.

G38A C58U: the self-cleavage came to 0.175.

On to G38U U46G, for which the self-cleavage is 0.0755. As for G38U U46C, the figure is 0.135. As for G38U C41U, the self-cleavage turned out to be 0.623. Consider G38U C41A, for which the self-cleavage is 0.407. On to G38A G67C, for which the self-cleavage came out at 0.113.

Turning to G39A C41G, the self-cleavage worked out at 0.228. G39A C41U: the self-cleavage stood at 0.793.

As for G39A C41A, the self-cleavage stood at 0.471.

With G39A C86G, the self-cleavage is 0.534.

For the variant G39A C86U, the self-cleavage came out at 0.513. In the case of G38A G40A, the self-cleavage is 0.262. In the case of G38A G40U, the self-cleavage was 0.149.

Regarding G38A G40C, the self-cleavage was determined as 0.138.

With G39A U60C, the self-cleavage worked out at 0.746.

In the case of G39A U60A, the self-cleavage worked out at 0.268. As to G39A C64A, the self-cleavage is 0.458. As for G39A C64G, the figure is 0.492.

G39A C64U: the self-cleavage amounted to 0.484.

As for G38U C58G, the self-cleavage came to 0.306. For the variant G38U C58A, the self-cleavage worked out at 0.164. Next, G38A G54A: 0.273; G39A C75G: 0.143; G38A C66U: 0.128. Take G38A C66G: the self-cleavage came out at 0.109. For G38A C84A, the self-cleavage is 0.185. In the case of U37G G73C, the self-cleavage is 0.0791. On to U37G G73A, for which the self-cleavage came to 0.

In the case of G38C G81A, the self-cleavage was determined as 0.

As for G39A G76U, the self-cleavage stood at 0.873. As for G39A G76C, the figure is 0.57. G38C A78U: the self-cleavage was determined as 0.0308. Next, G39A A83G: 0.507. For G39A A83U, the self-cleavage is 0.185. With G38C U69A, the self-cleavage stood at 0.095. In the case of G38C U69G, the self-cleavage turned out to be 0.356. Regarding G38C C49U, the self-cleavage was 0.277. Consider G38C U47G, for which the self-cleavage is 0.225. For the variant U37G U79G, the self-cleavage is 0.115.

With U37G U79C, the self-cleavage was 0. For G38C G80U, the self-cleavage came to 0.0314. As for G38C G80A, the figure is 0.131. Turning to G38C G80C, the self-cleavage worked out at 0.145.

As to G39A G53A, the self-cleavage worked out at 0.632.

For the variant G39A G53C, the self-cleavage stood at 0.383. In the case of G39A A43G, the self-cleavage was 0.0707.

For G39A A43C, the self-cleavage stood at 0.185. Take G38C: the self-cleavage turned out to be 0.239. Next, G38U: 0.255; G38A: 0.157. As to G38A A87G, the self-cleavage stood at 0.219.

Take G38A A87C: the self-cleavage was determined as 0.0881. Take G38U A78G: the self-cleavage is 0.203.

As for G38A A77C, the self-cleavage was 0.0354. Take G38C A43U: the self-cleavage came out at 0.116. Next, G38C A43G: 0.219. With G38U G55A, the self-cleavage stood at 0.137. G38A A51C: the self-cleavage came to 0.212. For the variant G38A A51U, the self-cleavage came to 0.268. Take G39A A51U: the self-cleavage came to 0.521. With G39A A51G, the self-cleavage was found to be 0.458. Next, G38C G73U: 0.13; G38C G68C: 0.193. For the variant G38C G68A, the self-cleavage is 0.172. Regarding G38C G68U, the self-cleavage was determined as 0.272. On to G38C C48G, for which the self-cleavage is 0.133. G38C C48A: the self-cleavage is 0.104. Consider G38C C48U, for which the self-cleavage was found to be 0.161. Turning to G39A G80A, the self-cleavage came out at 0.229. Next, G39A G80U: 0.178; G38C A51G: 0.309; G39A C61G: 0.337. As for G38C C75A, the figure is 0; as for G38C C75G, 0.104. Next, G38A G80A: 0.0372; G38A G80U: 0.156. For the variant G38U C66U, the self-cleavage was determined as 0.175. In the case of G38A A83U, the self-cleavage stood at 0.13. Next, U37G U72G: 0.115; G39A C48U: 0.504. As for G39A C48A, the figure is 0.609. As for G39A C48G, the self-cleavage is 0.507. As to G38C C57G, the self-cleavage turned out to be 0.356. Regarding G38U G39A, the self-cleavage stood at 0.0415.

For the variant G38A U79A, the self-cleavage stood at 0.0831. On to G38A A78G, for which the self-cleavage is 0.0755.

G38A A78U: the self-cleavage worked out at 0.0297. As for G38A A78C, the figure is 0.138; as for G38U C84U, 0.0821. As for G38U U65A, the figure is 0.292; as for G39A A56G, 0.509; as for G38A U72A, 0.155. Next, G38A U72G: 0.0415. On to G39A C62U, for which the self-cleavage was found to be 0.508. Regarding U37G G82C, the self-cleavage is 0.128.

Consider U37G G82U, for which the self-cleavage turned out to be 0.0773. Regarding G39A C84U, the self-cleavage was 0.321. G39A C84A: the self-cleavage stood at 0.415. As for U37G U47C, the self-cleavage is 0.128. In the case of U37G U47A, the self-cleavage came out at 0.158. G39A G67C: the self-cleavage was 0.665. With U37G U60G, the self-cleavage was 0.0831.

For the variant G38C G55C, the self-cleavage came out at 0.46. G38C G55A: the self-cleavage was found to be 0.124. For the variant G38U C44A, the self-cleavage worked out at 0.16.

As for G38C A56U, the self-cleavage worked out at 0.262. As for G38C A56G, the figure is 0.197; as for G38C A56C, 0.181; as for G38A U47C, 0.0767. Next, G38C A77G: 0.0536; G39A G68A: 0.415.
